The text below walks through data of article PMC7900914 (Nature structural & molecular biology, 2017).

This assay addresses HLA-B*57:01–TW10 (human |  | HIV-1). Kind of assay: SPR.

B1: KIR3DL1*001 (similar construct, from insect cells) (receptor)
chain: HMGGQDKPFLSAWPSAVVPRGGHVTLRCHYRHRFNNFMLYKEDRIHIPIFHGRIFQESFNMSPVTTAHAGNYTCRGSHPHSPTGWSAPSNPVVIMVTGNHRKPSLLAHPGPLVKSGERVILQCWSDIMFEHFFLHKEGISKDPSRLVGQIHDGVSKANFSIGPMMLALAGTYRCYGSVTHTPYQLSAPSDPLDIVVTGPYEKPSLSAQPGPKVQAGESVTLSCSSRSSYDMYHLSREGGAHERRLPAVRKVNRTFQADFPLGPATHGGTYRCFGSFRHSPYEWSDPSDPLLVSVTGNPS
In the case of B1, the dissociation constant Kd (commonly the equilibrium constant for the complex coming apart) is approximately 60 µM.
